Results: patent publication US20230277632A1, “MODIFIED PlySs2 LYSINS AND ANTIBIOTIC COMBINATIONS FOR USE AGAINST GRAM-POSITIVE BACTERIA” (ContraFect Corporation, priority 2020, published 2023)

System: MSSA strains
Assay: Checkerboard assay: pp296 or CF-301 with oxacillin
Type: cell-based, Staphylococcus aureus
Details: for FIC: pp296 + oxacillin; for ΣFICmin: with oxacillin
Excerpt: In some embodiments, the present modified lysin polypeptides reduce the minimum inhibitory concentration (MIC) of an antibiotic. Any known method to assess MIC may be used. In some embodiments, a checkerboard assay is used to determine the effect of a lysin on antibiotic concentration. The checkerboard assay is based on a modification of the CLSI method for MIC determination by broth microdilution (See Clinical and Laboratory Standards Institute (CLSI), CLSI. 2015. Methods for Dilution Antimicrobial Susceptibility Tests for Bacteria That Grow Aerobically; Approved Standard-10th Edition. Clinical and Laboratory Standards Institute, Wayne, Pa., which is herein incorporated by reference in its entirety and Ceri et al. 1999. J. Clin. Microbiol. 37: 1771-1776, which is also herein incorporated by reference in its entirety).
Checkerboards are constructed by first preparing columns of e.g., a 96-well polypropylene microtiter plate, wherein each well has the same amount of antibiotic diluted 2-fold along the horizontal axis. […] The lysin and antibiotic dilutions are then combined, so that each column has a constant amount of antibiotic and doubling dilutions of lysin, while each row has a constant amount of lysin and doubling dilutions of antibiotic. Each well thus has a unique combination of lysin and antibiotic. Bacteria are added to the drug combinations at a given concentration. […] Summation fractional inhibitory concentrations (ΣFICs) are calculated for each drug and the minimum ΣFIC value (ΣFICmin) is used to determine the effect of the lysin/antibiotic combination.
The ability of CF-301 or a modified lysin polypeptide pp296 to synergize with oxacillin was assessed using a checkerboard analysis. For the checkerboard assay, a total of 50 μl of Mueller-Hinton broth is distributed into each well of microdilution plates. Then, a first antibiotic of a combination is serially diluted along the ordinate, while a second drug is diluted along the abscissa. An inoculum equal to a 0.5 McFarland turbidity standard is prepared from each bacterial isolate in Mueller-Hinton broth. Each microtiter well is then inoculated with 100 μl of a bacterial inoculum of 5×10^5 CFU/ml, and the plates are incubated at 37° C. for 18 h under aerobic conditions. The resulting checkerboard contains each combination of two antibiotics, with wells that contain the highest concentration of each antibiotic at opposite corners. […] To quantify the interactions between the antibiotics being tested, the FIC index (the combination of antibiotics that produced the greatest change from the individual antibiotic's MIC) value is calculated for each strain and antibiotic combination as follows:
(A/MICA)+(B/MICB)=FICA+FICB=FIC index,
where A and B are the MIC of each agent in combination in a single well, and MICA and MICB are the MIC of each drug when used individually. The combination is considered strongly synergistic when the FIC index is ≤0.5 and synergistic when the FIC index is >0.5-<1.

B1: pp296: modified PlySs2 lysin, SEQ ID NO: 6: L92W, V104S, V128T, Y137S, Y164K, N184D, S198Q (protein)
chain: MTTVNEALNNVRAQVGSGVSVGNGECYALASWYERMISPDATVGLGAGVGWVSGAIGDTISAKNIGSSYNWQANGWTVSTSGPFKAGQIVTWGATPGNPYGHVSIVEAVDGDRLTILEQNYGGKRYPTRNYYSAASSRQQVVHYITPPGTVAQSAPNLAGSRSKRETGTMTVTVDALNVRRAPDTSGEIVAVYKRGEQFDYDTAIIDVNGYAWVSYIGGSGKRNYVATGATKDGKRFGNAWGTFK
0.0625: FIC (MSSA JMI-6625)
0.3125: ΣFICmin (MSSA JMI-6625)
1 µg/mL: Single agent MICs (MSSA ATCC 29213) | Single agent MICs (MSSA JMI-6625) | Single agent MICs (MSSA JMI-6885) | Single agent MICs (MSSA JMI-6886) | Single agent MICs (MSSA JMI-7054) | Single agent MICs (MSSA JMI-7160) | Single agent MICs (MSSA JMI-38739) | Single agent MICs (MSSA JMI-38986) | Single agent MICs (MSSA JMI-40671) | Single agent MICs (MSSA JMI-46142)
0.375: ΣFICmin (MSSA JMI-6885) | ΣFICmin (MSSA JMI-38986) | ΣFICmin (MSSA JMI-40671)
0.5: ΣFICmin (MSSA ATCC 29213) | ΣFICmin (MSSA JMI-6886) | ΣFICmin (MSSA JMI-7054) | ΣFICmin (MSSA JMI-7160) | ΣFICmin (MSSA JMI-38739) | ΣFICmin (MSSA JMI-46142)
0.25: FIC (MSSA ATCC 29213) | FIC (MSSA JMI-6885) | FIC (MSSA JMI-6886) | FIC (MSSA JMI-7054) | FIC (MSSA JMI-7160) | FIC (MSSA JMI-38739) | FIC (MSSA JMI-40671) | FIC (MSSA JMI-46142)
0.125: FIC (MSSA JMI-38986)
